Molecular target: luminGAVPO (luminescent GAVPO), Nluc-GAVPO fusion with NG configuration

- induction ratio of a Gluc reporter driven by Gal4 binding sites, HEK293 cells, furimazine alone 0-25 uM, maximum at 2.5 uM: 116 fold
Substance: luminGAVPO (luminescent GAVPO), Nluc-GAVPO fusion with NG configuration
